From patent publication US20230002458A1 (ALPHABETA, published 2023)

Assays:
[1] = target: T1, rh wt Bri2 BRICHOS-mCherry oligomers (human, UniProt A5A6H8 113-231 (Pan troglodytes entry)); assay: cell-based or functional assay
T1 sequence: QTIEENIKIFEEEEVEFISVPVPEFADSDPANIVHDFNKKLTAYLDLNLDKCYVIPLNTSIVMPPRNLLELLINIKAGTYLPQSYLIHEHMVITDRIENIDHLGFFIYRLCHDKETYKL

[2] = target: the molecule itself; assay: size exclusion chromatography, self-association

B1: rh Bri2 BRICHOS R221E monomer (other)
chain: QTIEENIKIFEEEEVEFISVPVPEFADSDPANIVHDFNKKLTAYLDLNLDKCYVIPLNTSIVMPPRNLLELLINIKAGTYLPQSYLIHEHMVITDRIENIDHLGFFIYELCHDKETYKL
- release of wt monomers from oligomers after co-incubation [1]: ~2 molar ratio mutant:wt

B2: rh wt Bri2 BRICHOS (other)
chain: QTIEENIKIFEEEEVEFISVPVPEFADSDPANIVHDFNKKLTAYLDLNLDKCYVIPLNTSIVMPPRNLLELLINIKAGTYLPQSYLIHEHMVITDRIENIDHLGFFIYRLCHDKETYKL
notes: also called Bri2 BRICHOS [Bri2(113-231)]; wt protein
- binding result [2]: binds
